Experimental data published in IntAct's records for PubMed 21946560.

B1: DNA replication regulator DPB11 (Saccharomyces cerevisiae), P47027 (parent)
chain: MKPFQGITFCPTAINNEILAKKISKKIIKLGGIFSKDLTRQVNVLVVGSTTNTNKFKFAVKHRFDIIFIDIQAIDDIYQLWLSGENILPDSNTATMTGSTYEMLKILYRRFSFKYLHNFNIFIGRITDTNITSIDSLVRSIKKLGCSSYNYQNFVIKDTSSHNDDDDQGQNGQISIFVTDTLLGARVNAAIEQNIPIVHFKWILDCQKRSALLPYDPYYLLPNIKDLPYDSIGSNSCDCWDKINTTFPTNIDAQSSLQRQQSSSTLTPSLPKTSSLLNKFKPKGEKIWDKAMSLQQHSKTNFSVLGQSPLSINNKQEDLSDNSTLIFKNCAFIIHHIFPGNHRSILTKIVVQNGGKIETSYLSGIYDHSYYIIPSNKALDSFNDLPEIIDDNDGIVTEFFIERCLYYQKLLHPIDLWSKPFLSTIEFQVSSSSKLLHHEFSSSPFLNVTITGFSGVELLHLTKVLNLLKPMGINYVEYLNKSTDILLINLAALPSIPKTHPLWSNEFSDLFTQFCINNNNDDPGDNNRKDFQNNSILRNSMKRKIEYIKKFHSIPVVTPAFIFKLLSAASGENNEIFLNNIKWCIICPRGHKDDFKCKIKKPYYTSISSEKKYQNNDPKIDKTILLKRNNSSLSEHSMKDTKNELLQKIRETDSGRKKRSVSSSIMDVSSERQMPDTKRIKLESLPKNFVPKQIKRTTSWGTIMSENVPTEQPTAISNPEEIPRTEEVSHTQVTYGSIQDKKRTASLEKPMRRQTRNQTKELDS
partner: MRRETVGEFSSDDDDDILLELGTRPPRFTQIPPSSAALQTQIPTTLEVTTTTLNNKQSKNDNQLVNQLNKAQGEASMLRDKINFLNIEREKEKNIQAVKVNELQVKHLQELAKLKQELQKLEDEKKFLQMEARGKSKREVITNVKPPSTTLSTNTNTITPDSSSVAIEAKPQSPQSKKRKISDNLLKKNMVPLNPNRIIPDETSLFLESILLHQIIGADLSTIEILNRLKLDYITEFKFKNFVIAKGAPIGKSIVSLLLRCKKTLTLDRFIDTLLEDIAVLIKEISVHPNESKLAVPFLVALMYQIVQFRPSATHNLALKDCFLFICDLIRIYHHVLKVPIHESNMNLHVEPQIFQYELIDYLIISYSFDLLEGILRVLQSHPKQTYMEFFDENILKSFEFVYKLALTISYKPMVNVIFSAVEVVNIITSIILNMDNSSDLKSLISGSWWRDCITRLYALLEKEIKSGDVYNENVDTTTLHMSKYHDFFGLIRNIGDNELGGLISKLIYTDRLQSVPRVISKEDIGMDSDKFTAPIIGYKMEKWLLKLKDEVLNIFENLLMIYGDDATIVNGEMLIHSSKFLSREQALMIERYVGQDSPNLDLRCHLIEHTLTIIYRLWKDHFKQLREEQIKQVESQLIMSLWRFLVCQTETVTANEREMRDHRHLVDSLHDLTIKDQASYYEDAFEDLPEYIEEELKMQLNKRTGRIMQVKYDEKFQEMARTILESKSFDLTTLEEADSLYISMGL
B2: DNA repair protein RAD9 (Saccharomyces cerevisiae), P14737 (parent)
chain: MSGQLVQWKSSPDRVTQSAIKEALHSPLADGDMNEMNVPVDPLENKVNSTNIIEGSPKANPNPVKFMNTSEIFQKSLGLLDESPRHDDELNIEVGDNDRPNANILHNERTPDLDRIANFFKSNRTPGKENLLTKYQSSDLEDTPLMLRKKMTFQTPTDPLEQKTFKKLKSDTGFCYYGEQNDGEENASLEVTEADATFVQMAERSADNYDCALEGIVTPKRYKDELSKSGGMQDERVQKTQIMISAESPNSISSYDKNKITGNGRTTRNVNKVFNNNEDNIGAIEEKNPVKKKSENYSSDDLRERNNQIIQSNESEEINELEKNLNVSGRENDVNNLDIDINSAVSGTPSRNNAEEEMYSSESVNNREPSKKWIFRYSKDKTENNSNRSTQIVNNPRTQEMPLDSISIDTQPLSKSFNTETNNELETQIIVSSLSQGISAQKGPVFHSTGQTEEIKTQIINSPEQNALNATFETPVTLSRINFEPILEVPETSSPSKNTMSKPSNSSPIPKEKDTFNIHEREVETNNVFSNDIQNSSNAATRDDIIIAGSSDFNEQKEITDRIYLQLSGKQISDSGSDETERMSPNELDTKKESTIMSEVELTQELPEVEEQQDLQTSPKKLVVEEETLMEIKKSKGNSLQLHDDNKECNSDKQDGTESLDVALIEHESKGQSSELQKNLMQLFPSESQEIIQNRRTIKRRQKDTIEIGEEEENRSTKTSPTKHLKRNSDLDAASIKREPSCSITIQTGETGSGKDSKEQSYVFPEGIRTADNSFLSKDDIIFGNAVWCQYTWNYKFYPGILLEVDTNQDGCWIYFETGRSLTKDEDIYYLDIRIGDAVTFDGNEYVVVGLECRSHDLNIIRCIRGYDTVHLKKKNASGLLGKRTLIKALSSISLDLSEWAKRAKIILEDNEKNKGDAYRYLRHPIRGRKSMTNVLSPKKHTDDEKDINTHTEVYNNEIESSSEKKEIVKKDSRDALAEHAGAPSLLFSSGEIRTGNVFDKCIFVLTSLFENREELRQTIESQGGTVIESGFSTLFNFTHPLAKSLVNKGNTDNIRELALKLAWKPHSLFADCRFACLITKRHLRSLKYLETLALGWPTLHWKFISACIEKKRIVPHLIYQYLLPSGESFRLSLDSPSKGGIIKSNNIFSFYTQFLRGSNLRDQICGVKKMLNDYIVIVWGRSELDSFVKFAFACLSAGRMLTIDLPNIDVDDTEPLLNALDSLVPRIGSELSNRKLKFLIYANENNGKSQMKLLERLRSQISLKFKKFNYIFHTESKEWLIQTIINEDTGFHDDITDNDIYNTISEVR
partner: B1 chain

Variants of: B1
Conditions: with lcd1_yeast LCD1, Q04377

Row | effect of a mutation on the interaction | Variant
1 | decreasing interaction | G736A
2 | decreasing interaction | Y735A

Variants of: B1
Conditions: with lcd1_yeast LCD1, Q04377
Remark: another data set of the same source

Row | effect of a mutation on the interaction | Variant
3 | disrupting interaction | W700A
4 | disrupting interaction | G701A

Variants of: B1
Conditions: with lcd1_yeast LCD1, Q04377
Remark: another data set of the same source

Row | effect of a mutation on the interaction | Variant
5 | decreasing interaction | G701A

Variants of: B2
Conditions: with dpb11_yeast DPB11, P47027

Row | effect of a mutation on the interaction | Variant
6 | disrupting interaction | T474A
7 | disrupting interaction | S462A

Variants of: B2
Conditions: with dpb11_yeast DPB11, P47027
Remark: another data set of the same source

Row | effect of a mutation on the interaction | Variant
8 | decreasing interaction | T474A
